Three substances from PMC8580143 can be followed below.

For assay [1], the target named is endogenous rat PP1 (detected with an antibody that recognizes all PP1 isoforms) (rat (endogenous in primary hippocampal neurons)) (UniProt P62138). The experiment in a line: proximity ligation; PLA in fixed primary rat hippocampal neurons (DIV 8) with Tau7 and a pan-PP1 antibody; puncta per area of Tau12 (human tau) staining; n = 3; untransduced neurons for endogenous tau. On the set-up: unit not given here.

The target of assay [2] is endogenous rat PP1γ (rat (endogenous in primary hippocampal neurons)) (UniProt P63088). Nature of the assay: proximity ligation; PLA in fixed primary rat hippocampal neurons with Tau7 and a PP1γ-specific antibody; puncta per area of Tau12 staining; n = 3; untransduced neurons for endogenous tau. Also on record: unit not given here.
Chain of UniProt P63088 (P63088 whole entry): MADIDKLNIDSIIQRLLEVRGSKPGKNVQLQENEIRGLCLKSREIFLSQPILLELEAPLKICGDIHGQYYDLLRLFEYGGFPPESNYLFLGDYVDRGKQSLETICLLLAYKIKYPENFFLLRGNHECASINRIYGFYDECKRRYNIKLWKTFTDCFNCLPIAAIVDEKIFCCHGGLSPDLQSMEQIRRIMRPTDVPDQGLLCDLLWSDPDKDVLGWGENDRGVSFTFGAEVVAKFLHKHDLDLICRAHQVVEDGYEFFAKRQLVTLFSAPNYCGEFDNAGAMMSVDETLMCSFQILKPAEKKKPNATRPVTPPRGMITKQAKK

Chain of UniProt P62138 (P62138 whole entry, canonical isoform): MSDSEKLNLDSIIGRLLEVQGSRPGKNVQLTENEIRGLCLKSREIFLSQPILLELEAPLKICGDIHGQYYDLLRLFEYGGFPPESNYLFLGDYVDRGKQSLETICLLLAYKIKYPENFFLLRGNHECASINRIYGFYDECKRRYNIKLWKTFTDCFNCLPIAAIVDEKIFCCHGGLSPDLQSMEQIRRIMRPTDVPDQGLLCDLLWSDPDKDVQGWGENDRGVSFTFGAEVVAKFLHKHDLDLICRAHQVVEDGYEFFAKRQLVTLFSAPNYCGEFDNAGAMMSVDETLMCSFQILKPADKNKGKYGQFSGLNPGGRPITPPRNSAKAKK

Consider “wild-type human tau (C-terminally FLAG-tagged) expressed by lentivirus in rat hippocampal neurons (natural protein)”, for which the PLA puncta per area of Tau12 staining in assay [1] came out at 23.1; in assay [2], 11.3.

Turning to “P301L mutant human tau (C-terminally FLAG-tagged) expressed by lentivirus in rat hippocampal neurons (natural protein)”, the PLA puncta per area of Tau12 staining is 67.3 in assay [1] and 28 in assay [2].

Regarding “R5L mutant human tau (C-terminally FLAG-tagged) expressed by lentivirus in rat hippocampal neurons (natural protein)”, the PLA puncta per area of Tau12 staining in assay [1] came out at 31.3; in assay [2], 16.2.
